Assay results taken from PMC3532415.
pKd: −log10 of the molar value.

Key:
[1] = molecular target: histone H3 1–15 K9me3 peptide (UniProt P68431); assay: fluorescence polarisation; fluorescence-labelled peptide constant at 40 nM, SUV39H1 (42–100 or 44–106) titrated from low to high micromolar; 20 mM Tris-HCl pH 8.5 or 7.5, 150 mM NaCl, 1 mM DTT, 0.01% Tween-X-100; 10 µL in 384-well plates; fit to a hyperbolic function
[2] = molecular target: histone H3 1–15 K9me2 peptide (UniProt P68431); assay: as above

- pKd [1]: 4.70
- pKd [2]: 4.54
Substance: human SUV39H1 chromodomain (aa 42–100), complete chromodomain (from UniProt O43463 42-100) (domain or fragment)
